According to patent US20100273983A1, “METHOD OF PURIFYING PEPTIDES BY SELECTIVE PRECIPITATION” (The University of Queensland, priority 2007, published 2010):

Key:
Assay type in all cases: physicochemical
[1] = Ethanol precipitation of AM1-spiked E. coli cell lysate supernatant containing MBP; AM1 in supernatants and pellets by RP-HPLC
Description: For the precipitation with ethanol the cell lysate supernatant was spiked with chemically synthesized AM1 peptide to a final concentration of 0.286 μg AM1 per μL. AM1 was custom synthesized by Genscript (Piscataway, USA). The purity was >95% by reversed-phase high performance liquid chromatography. The peptide was stored in a lyophilized form and was dissolved in 0.1% v/v TFA prior to use (cAm1=1 mg/mL).
For the ethanol precipitation experiment, 420 μL of AM1 (in 0.1% v/v TFA, 1 μg/μL) was added to 1050 μL of lysate supernatant and mixed by vortexing. The samples were prepared with different ethanol concentrations ranging from 50-75% (v/v).
The samples were incubated on a roller mixer at speed adjustment 7.5 for 17 h. The tubes were centrifuged at 15,000 rpm for 10 min. […] The protein present in the urea dissolved pellets, as well as the supernants was directly analyzed by Bradford and SDS-PAGE.
For quantitative analysis of AM1 peptide in the supernatants and pellets, reversed-phase high performance liquid chromatography (RP-HPLC) was used with an analytical C18 column (Jupiter 00F-4053-E0, Phenomenex, UK). […]
The retention time of AM1 at the above mentioned elution gradient and flow rate was tR=21.5 min. […] The following equation was used to determine the amount of AM1 in the supernatants and pellets as a function of the peak area detected by RP-HPLC: Detected peak area/1207925=μg of AM1 peptide.

[2] = Solvent (ethanol/acetone) precipitation of TEVp cleaved Trx-P11-2 homogenate; peptide in supernatants and pellets by HPLC
[3] = Stability of peptide and fusion protein in cell homogenate (TEVp cleavage reactions, HPLC/SDS-PAGE); details: homogenate without heat-treatment; degradation most likely by cellular proteases
Description: All cleavage reactions were performed with recombinant TEVp, using homogenate prepared as above, where the Trx-P11-2 content had been HPLC quantified. Cleavage reactions were performed in TEVp reaction buffer, at room temperature, in sealed tubes that had been purged of air with nitrogen. All reactions were stopped by the addition of equal volumes of either 6 M guanidine hydrochloride or 2×SDS-PAGE sample buffer and analyzed by HPLC (to quantify peptide generation) and SDS-PAGE (to confirm cleavage of the fusion protein), respectively.
Homogenate was heat-treated by incubating samples in a water bath at 55° C. for 15 min. […] The effect on the stability of the P11-2 peptide was analyzed by comparing cleavage reactions (at 0, 1, 2 and 3 h) with a final substrate concentration of 160 μM Trx-P11-2 and 8 μM TEVp, prepared with heat-treated and non heat-treated homogenate. […] The effect of salt on enzyme activity was assessed by analyzing cleavage reactions prepared with 8 μM TEVp and 320 μM Trx-P11-2, that were supplemented with either 50, 150 or 250 mM NaCl. These cleavage reactions were analyzed at 0, 1, 2 and 3 h by SDS-PAGE and HPLC. […] The supernatants were diluted with water to reduce the percentage of ethanol and analyzed by HPLC.

[4] = Solvent (ethanol/acetone) precipitation of TEVp cleaved Trx-P11-2 homogenate; peptide in supernatants and pellets by HPLC; remark: listed apart in the source
Description: Homogenate was heat-treated by incubating samples in a water bath at 55° C. for 15 min. The effect on the solubility of the fusion protein was assessed by SDS-PAGE and HPLC analysis of heat-treated homogenate before and after centrifugation (10000×g, 10 min). The effect on the stability of the P11-2 peptide was analyzed by comparing cleavage reactions (at 0, 1, 2 and 3 h) with a final substrate concentration of 160 μM Trx-P11-2 and 8 μM TEVp, prepared with heat-treated and non heat-treated homogenate. Conditions were optimized by evaluating reactions prepared with 8 μM TEVp and 160, 240 and 320 μM Trx-P11-2 after 0, 1, 2 and 3 h. The effect of salt on enzyme activity was assessed by analyzing cleavage reactions prepared with 8 μM TEVp and 320 μM Trx-P11-2, that were supplemented with either 50, 150 or 250 mM NaCl. These cleavage reactions were analyzed at 0, 1, 2 and 3 h by SDS-PAGE and HPLC. After 3 h, ethanol was added to a final concentration of 75% (v/v) and samples were incubated at room temperature for 10 min before centrifuging at 10 000×g for 5 min. The supernatants were diluted with water to reduce the percentage of ethanol and analyzed by HPLC.
All precipitation experiments were performed with the same batch of Trx-P11-2, cleaved with a 40:1 (substrate:enzyme) molar ratio, a substrate concentration of 320 μM (5.12 mg ml^−1) and in the presence of 250 mM NaCl. The precipitation samples were centrifuged for 5 min at 10000×g, and the supernatants collected and analyzed by HPLC to quantify the peptide present. The pellets were resuspended in 6 M guanidine hydrochloride to the same volume as the supernatants, and analysed by HPLC. Acetone and ethanol precipitations were performed using HPLC grade ethanol and acetone, which was added to samples to final concentrations of 20, 40, 60, 65, 70, 75, 80, and 85% (v/v) before incubating for 10 min at room temperature and centrifuging for 5 min at 10000×g. The supernatants were collected and dried using an RVC 2-18 speed-vac (Christ, Osterode, Germany), the pellets were air-dried and both were resuspended in 6 M guanidine hydrochloride. The samples were analyzed by HPLC to quantify the peptide and Bradford assay to quantify the total protein remaining. The peptide and protein remaining in the pellets and supernatants were compared to the results obtained for the starting cleavage reactions to determine the percentages of peptide and protein in each fraction.
Reversed-phase HPLC(RP-HPLC) was carried out using an analytical C5 column (Jupiter, 150 mm×4.6 mm, 5μ, 300 Å) (Phenomenex, Torrance, Calif., USA) connected to a LC-10Avp series HPLC system (Shimadzu, Kyoto, Japan) with a mobile phase A, 0.1% (v/v) trifluoroacetic acid (TFA) in water and B, 90% (v/v) acetonitrile, 0.1% (v/v) TFA in water. Initial analysis of fusion protein and cleavage was performed using a linear gradient from 10% B to 60% B in 50 min at a flow rate of 1 ml min^−1. Peptides were analyzed, collected and quantified using a linear gradient from 10% B to 35% B in 25 min. Final peptide preparation was assessed using a linear gradient from 10% B to 90% B in 80 min. All samples were diluted 1:2 in 6 M guanidine-HCl prior to injection for the purpose of column preservation unless stated otherwise.

Substance | percentage of AM1 present in the precipitate ([1]; ethanol 50-75% (v/v), 23° C., 17 h, relative to AM1 in starting material) | peptide in the original lysate recovered from the supernatant ([1]; precipitation at greater than 65% (v/v) ethanol) | solubility of purified peptide at high solvent concentrations ([2]; purified peptide, results not shown) | behaviour of peptide on solvent precipitation without salt ([2]; standard TEVp reaction buffer (10 mM Tris-Cl, 0.5 mM EDTA, 5 mM DTT, pH 8.0), in homogenate) | stability in homogenate [3] | yield of peptide in the supernatant after precipitation ([4]; 50 mM NaCl, 75% (v/v) ethanol) | yield of peptide in the supernatant after precipitation ([4]; 150 mM NaCl, 75% (v/v) ethanol) | yield of peptide in the supernatant after precipitation ([4]; 250 mM NaCl, 75% (v/v) ethanol) | peptide losses on acetone precipitation ([4]; 75% (v/v) acetone, 250 mM salt) | peptide yield on ethanol precipitation ([4]; 75% (v/v) ethanol, 250 mM salt) | solubility of peptide in acetone ([4]; 85% (v/v) acetone, 250 mM salt) | losses of peptide on ethanol precipitation ([4]; 85% (v/v) ethanol, 250 mM salt) | yield of peptide after removal of contaminating proteins with solvent precipitation ([4]; finalized process, 1 L culture, 75% (v/v) ethanol, 250 mM NaCl) | losses of peptide on precipitation ([4]; room temperature, 70-75% (v/v) ethanol or acetone, 250 mM salt)
Ac-MKQLADSLHQLARQVRSLEHA-CONH2 (Ac-MKQLADSLHQLARQVRSLEHA-NH2) [AM1] | approximately 5% | Over 80% |  |  |  |  |  |  |  |  |  |  |  | 
QQRFQWQFEQQ [P11-2] |  |  | soluble | co-precipitated with the contaminating proteins | quickly degraded | 55% | 81% | 95% | exceeding 30% | over 90% | almost completely insoluble | > 70% | 95% | < 5%
